Reference: US20030229041A1

Molecular target: bone morphogenetic protein 6 (UniProt P22004)
Assay: cell-based or functional assay

Chain of UniProt P22004 (P22004 382-513 limits assumed): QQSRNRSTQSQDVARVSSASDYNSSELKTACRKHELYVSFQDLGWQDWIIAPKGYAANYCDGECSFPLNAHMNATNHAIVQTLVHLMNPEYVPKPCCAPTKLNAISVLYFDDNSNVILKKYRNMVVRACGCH

BMP-6 stimulated alkaline phosphatase activity in mouse mesenchymal C3H10T1/2 cells (IC50): 0.3 µg/mL
Substance: mouse noggin (from UniProt P97466 28-232)
